# Data reported in US20160053274.
# What was measured:
# Experiment in all cases: cell_activity
# [1] = system: TALENbar334 monomer 1 (artificial); conditions: tobacco protoplasts, as pair with monomer 2, 12 nt spacer, foreign DNA pTIB235; 94.35 with pTCV224, 94.09 with pTCV225
# [2] = system: TALENbar86 monomer 1 (artificial); conditions: tobacco protoplasts, as pair with monomer 2, 13 nt spacer, foreign DNA pTIB235; 19.6 with pTCV224, 25.6 with pTCV225
# [3] = system: TALENbar334 monomer 2 (artificial); conditions: tobacco protoplasts, as pair with monomer 1, 12 nt spacer, foreign DNA pTIB235; 94.35 with pTCV224, 94.09 with pTCV225
# [4] = system: bar meganuclease (cleaving at bar position 479) (artificial); conditions: tobacco protoplasts, targeted insertion with repair DNA pTCV225 (3/164 calli)
# [5] = system: TALENbar86 monomer 2 (artificial); conditions: tobacco protoplasts, as pair with monomer 1, 13 nt spacer, foreign DNA pTIB235; printed half-site differs from full site as printed (AGCACGGTCAACTTCCCT)
sequence,measurement,setting,value
CCACGCTCTACACCCACC (double strand) [bar334 half-site 1],activity,[1],76 % mutation
CTGCACCATCGTCAACCA (double strand) [bar86 half-site 1],activity,[2],6.25 % mutation
TGAAGCCCTGTGCCTCCA (double strand) [bar334 half-site 2],activity,[3],76 % mutation
GGGAACTGGCATGACGTGGGTTTC (double strand) [bar meganuclease site],activity,[4],1.8 % TSI
ACGGAAGTTGACCGTGCT (double strand) [bar86 half-site 2],activity,[5],6.25 % mutation
